Source: CN117466995A (YIDAO BIOTECHNOLOGY SUZHOU CO LTD, dated 2024)
Values joined by “and” are separate entries in the source; they are usually repeats but may differ in a detail not shown here. Equal values may be shown once.

What was measured:
[1] = molecular target: T1, HPV45型衣壳蛋白L1病毒样颗粒(VLP)抗原 (HPV 45型) (UniProt P36741); assay: sandwich ELISA, rabbit pAb R163 capture 1:500, mAb 1:20000; antigen 13.3 ug/ml, 2.5-fold series, step 5
T1 sequence: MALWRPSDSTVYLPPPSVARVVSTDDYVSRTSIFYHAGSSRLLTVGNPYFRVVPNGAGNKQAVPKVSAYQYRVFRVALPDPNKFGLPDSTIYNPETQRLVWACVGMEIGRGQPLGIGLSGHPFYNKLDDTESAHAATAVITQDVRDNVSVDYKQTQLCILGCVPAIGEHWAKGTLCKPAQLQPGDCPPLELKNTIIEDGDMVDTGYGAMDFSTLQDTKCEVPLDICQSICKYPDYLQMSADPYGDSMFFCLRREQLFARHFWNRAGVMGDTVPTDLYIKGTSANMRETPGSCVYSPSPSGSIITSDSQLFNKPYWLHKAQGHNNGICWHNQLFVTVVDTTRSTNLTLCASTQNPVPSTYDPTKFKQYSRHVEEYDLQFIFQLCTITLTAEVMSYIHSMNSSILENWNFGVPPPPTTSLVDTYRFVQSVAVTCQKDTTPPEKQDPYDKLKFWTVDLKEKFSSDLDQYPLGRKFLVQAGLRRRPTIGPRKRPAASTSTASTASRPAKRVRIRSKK

[2] = molecular target: T1, HPV45型衣壳蛋白L1病毒样颗粒(VLP)抗原 (HPV 45型); assay: sandwich ELISA, rabbit pAb R163 capture 1:500, mAb 1:20000; antigen 13.3 ug/ml, 2.5-fold series, step 4
HPV 18 VLP抗原 = molecular target: T2, HPV 18 VLP抗原 (HPV 18, UniProt P06794 62-568); assay: direct ELISA on coated VLP antigens
T2 sequence: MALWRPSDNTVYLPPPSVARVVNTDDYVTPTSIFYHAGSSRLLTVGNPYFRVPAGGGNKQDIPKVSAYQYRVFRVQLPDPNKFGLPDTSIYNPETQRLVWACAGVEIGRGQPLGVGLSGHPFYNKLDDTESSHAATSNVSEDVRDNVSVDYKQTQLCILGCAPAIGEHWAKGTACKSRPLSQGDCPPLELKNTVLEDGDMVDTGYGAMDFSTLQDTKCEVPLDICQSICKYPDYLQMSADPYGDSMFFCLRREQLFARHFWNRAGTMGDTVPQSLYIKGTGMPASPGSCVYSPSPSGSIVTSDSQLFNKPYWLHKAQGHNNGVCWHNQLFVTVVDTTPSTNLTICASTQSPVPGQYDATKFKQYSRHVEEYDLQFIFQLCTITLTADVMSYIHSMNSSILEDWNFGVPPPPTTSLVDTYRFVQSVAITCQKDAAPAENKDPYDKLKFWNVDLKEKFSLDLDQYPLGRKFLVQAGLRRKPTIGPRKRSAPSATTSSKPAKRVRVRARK

HPV11 VLP抗原 = molecular target: T3, HPV11 VLP抗原 (HPV11, UniProt P04012 1-501); assay: direct ELISA on coated VLP antigens
T3 sequence: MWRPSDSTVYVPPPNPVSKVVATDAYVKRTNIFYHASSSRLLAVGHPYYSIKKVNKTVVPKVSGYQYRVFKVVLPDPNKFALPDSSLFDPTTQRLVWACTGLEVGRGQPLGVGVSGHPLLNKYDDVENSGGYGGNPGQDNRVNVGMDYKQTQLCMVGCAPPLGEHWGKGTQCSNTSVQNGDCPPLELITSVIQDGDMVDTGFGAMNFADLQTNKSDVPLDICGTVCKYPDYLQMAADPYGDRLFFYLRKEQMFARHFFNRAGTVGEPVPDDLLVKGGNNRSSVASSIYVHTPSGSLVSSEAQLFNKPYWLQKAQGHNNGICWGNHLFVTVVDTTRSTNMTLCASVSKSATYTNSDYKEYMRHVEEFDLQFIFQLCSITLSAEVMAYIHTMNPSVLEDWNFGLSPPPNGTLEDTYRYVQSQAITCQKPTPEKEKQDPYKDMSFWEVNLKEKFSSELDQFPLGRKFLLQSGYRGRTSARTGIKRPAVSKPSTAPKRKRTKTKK

HPV 33 VLP抗原 = molecular target: T4, HPV 33 VLP抗原 (HPV 33, UniProt P06416 1-499); assay: direct ELISA on coated VLP antigens
T4 sequence: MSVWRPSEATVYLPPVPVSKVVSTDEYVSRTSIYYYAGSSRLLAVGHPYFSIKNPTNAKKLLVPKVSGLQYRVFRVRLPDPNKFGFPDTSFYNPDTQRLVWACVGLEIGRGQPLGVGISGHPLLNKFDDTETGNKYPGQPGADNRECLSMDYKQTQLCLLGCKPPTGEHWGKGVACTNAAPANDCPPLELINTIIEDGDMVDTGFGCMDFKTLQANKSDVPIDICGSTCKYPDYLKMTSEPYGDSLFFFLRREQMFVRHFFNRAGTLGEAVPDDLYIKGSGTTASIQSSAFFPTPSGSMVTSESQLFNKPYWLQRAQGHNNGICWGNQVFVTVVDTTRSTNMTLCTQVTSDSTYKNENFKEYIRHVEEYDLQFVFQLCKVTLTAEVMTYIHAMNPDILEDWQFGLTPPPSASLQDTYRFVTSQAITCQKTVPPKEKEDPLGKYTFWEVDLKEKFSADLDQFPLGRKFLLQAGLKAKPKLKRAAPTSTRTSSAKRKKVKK

HPV 16 VLP抗原 = molecular target: T5, HPV 16 VLP抗原 (HPV 16, UniProt P03101 1-505); assay: direct ELISA on coated VLP antigens
T5 sequence: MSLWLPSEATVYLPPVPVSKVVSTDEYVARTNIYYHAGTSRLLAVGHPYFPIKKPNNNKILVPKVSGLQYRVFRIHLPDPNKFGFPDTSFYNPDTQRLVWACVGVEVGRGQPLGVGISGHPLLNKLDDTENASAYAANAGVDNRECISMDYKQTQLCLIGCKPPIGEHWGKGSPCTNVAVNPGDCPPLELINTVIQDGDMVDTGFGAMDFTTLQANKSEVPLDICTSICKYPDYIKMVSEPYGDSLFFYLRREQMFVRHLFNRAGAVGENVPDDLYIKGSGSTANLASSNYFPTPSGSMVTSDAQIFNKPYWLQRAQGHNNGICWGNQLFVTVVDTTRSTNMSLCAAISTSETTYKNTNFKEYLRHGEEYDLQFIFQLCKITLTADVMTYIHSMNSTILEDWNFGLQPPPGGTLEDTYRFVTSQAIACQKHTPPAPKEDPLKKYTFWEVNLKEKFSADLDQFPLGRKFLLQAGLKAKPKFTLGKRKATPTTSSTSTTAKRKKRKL

B1: 杂交瘤细胞株7A5(CGMCC NO:45706)分泌的鼠源单克隆抗体 (antibody, V domains shown)
VH: QPGAELVKPGASVKLSCKASGYTFTSYWMHWVKQRPGQGLEWIGEINPSNGHTNYNEKFKSKATLTVDKSSSTAYMQLSSLTSEDSAVYYCAPCYGSSYDYYAMDYWGQGTSVTVSS
VL: DIVLTQSPASLAVSLGQRATISCRASQSVSTSSYSYMHWYQQKPGQPPKLLIKYASNLESGVPARFSGSGSGTDFTLNIHPVEEEDTATYYCQHSWEIPYTFGGGTKLEIK
notes: also called 鼠单抗7A5; 抗体7A5
B1 was tested, and the OD [1] was 1.54 OD and 1.56 OD, the OD [2] was 2.34 OD and 2.37 OD and the binding result (HPV 18 VLP抗原) was “no binding”. B1: no binding (HPV11 VLP抗原); no binding (HPV 33 VLP抗原); no binding (HPV 16 VLP抗原).

B2: 杂交瘤细胞株11G1(CGMCC NO:45707)分泌的鼠源单克隆抗体 (antibody, V domains shown)
VH: QVQLQQPGAELVKPGASVKLSCKASGYTFTSYWMHWVKRRPGQGLEWIGEINPSNGLTNYNEKFKSKGTLTVDKSSSAAFMHLSSLTSEDSAVYYCARFHGSDLYAMDYWGQGTSVTVSS
VL: B1 VL
notes: also called 鼠单抗11G1; 抗体11G1
With B2 the OD [1] was 0.922 OD and 1.02 OD, the OD [2] was 1.82 OD and 1.98 OD and the binding result (HPV 18 VLP抗原) was “no binding”. B2: no binding (HPV11 VLP抗原); no binding (HPV 33 VLP抗原); no binding (HPV 16 VLP抗原).
